Values joined by “and” are separate entries in the source; they are usually repeats but may differ in a detail not shown here. Identical values can stand only once.
T1: cynomolgus CD73 on transfected CHO cells (cynomolgus, UniProt P21589 27-549 (human entry))
T1 construct: also called CHO-cynoCD73; CHO-Cynomolgus CD73 transfectants
T1 chain: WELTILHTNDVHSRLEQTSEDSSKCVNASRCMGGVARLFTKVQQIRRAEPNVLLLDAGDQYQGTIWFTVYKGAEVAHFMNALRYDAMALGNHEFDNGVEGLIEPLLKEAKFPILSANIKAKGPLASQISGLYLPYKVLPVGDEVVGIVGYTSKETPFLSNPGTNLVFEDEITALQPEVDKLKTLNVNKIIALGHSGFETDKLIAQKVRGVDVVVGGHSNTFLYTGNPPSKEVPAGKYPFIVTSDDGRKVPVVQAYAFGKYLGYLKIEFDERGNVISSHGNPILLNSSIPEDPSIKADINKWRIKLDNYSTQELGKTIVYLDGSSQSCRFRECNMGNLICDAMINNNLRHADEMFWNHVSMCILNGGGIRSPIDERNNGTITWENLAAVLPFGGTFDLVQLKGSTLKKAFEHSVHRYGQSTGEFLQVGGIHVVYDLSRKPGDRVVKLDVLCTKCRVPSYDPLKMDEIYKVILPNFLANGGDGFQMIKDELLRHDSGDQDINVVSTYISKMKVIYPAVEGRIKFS

T2: human CD73 on cells (human, UniProt P21589 27-549)
T2 sequence: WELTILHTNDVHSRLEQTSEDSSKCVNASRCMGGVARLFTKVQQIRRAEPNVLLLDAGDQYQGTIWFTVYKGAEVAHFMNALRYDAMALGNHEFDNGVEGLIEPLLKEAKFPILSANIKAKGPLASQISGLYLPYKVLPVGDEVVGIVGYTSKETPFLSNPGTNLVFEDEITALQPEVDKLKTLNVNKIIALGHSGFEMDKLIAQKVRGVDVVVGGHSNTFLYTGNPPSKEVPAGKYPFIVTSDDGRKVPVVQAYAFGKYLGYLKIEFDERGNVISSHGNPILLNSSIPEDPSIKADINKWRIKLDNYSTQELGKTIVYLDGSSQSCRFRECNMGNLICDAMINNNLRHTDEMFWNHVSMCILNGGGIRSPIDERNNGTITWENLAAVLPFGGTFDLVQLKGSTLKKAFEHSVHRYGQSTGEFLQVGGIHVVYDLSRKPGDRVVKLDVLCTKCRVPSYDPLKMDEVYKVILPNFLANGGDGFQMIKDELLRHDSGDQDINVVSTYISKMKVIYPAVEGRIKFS

T3: N-hCD73-his (N-terminal domain of human CD73, residues 26-336, His tag) (human, UniProt P21589 26-336)
T3 sequence: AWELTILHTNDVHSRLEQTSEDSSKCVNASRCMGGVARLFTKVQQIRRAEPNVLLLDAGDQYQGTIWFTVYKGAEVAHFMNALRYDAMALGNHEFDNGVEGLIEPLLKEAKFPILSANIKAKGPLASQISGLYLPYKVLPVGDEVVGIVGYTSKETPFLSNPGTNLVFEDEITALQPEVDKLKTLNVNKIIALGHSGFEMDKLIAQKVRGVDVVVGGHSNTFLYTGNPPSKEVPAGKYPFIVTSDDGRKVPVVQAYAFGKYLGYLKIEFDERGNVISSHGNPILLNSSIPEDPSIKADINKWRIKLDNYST


Assays:
[1] = target: T1, cynomolgus CD73 on transfected CHO cells; assay: flow cytometry, CHO-cynoCD73 cells
Method: (§1) Titration binding curves were produced with CD73 antibodies on Calu6 (CD73 endogenous expressors; human pulmonary adenocarcinoma cell line), DMS114 (CD73 negative; human small cell lung cancer cell line), CHO-cynoCD73 (cynoCD73-transfected) and CHO-K1 (cynoCD73 negative), cells using Alexa Fluor® 647 Goat Anti-Human IgG (H+L) as a secondary antibody, Invitrogen Cat#A-21445, using the following method: 100000 cells were plated in 100 uL PBS+2% FBS per well and blocked for 20 min. Using a U-bottom 96-deep well plate, volumes of antibody and PBS+2% FBS were combined as dictated by Table 12 below.
(§2) An 8-point serial dilution was performed by diluting a sixth of the volume (90 uL) into […], PBS+2% FBS. The cell plate was spun down for 5 minutes at 1500 rpm. 100 uL of diluted antibody was added per well of the plate. 100 uL PBS+2% FBS were added to all other wells. […] The plates were spun down at 1500 rpm for 5 min and washed in 200 uL PBS+2% FBS per well. The plates were washed again, resuspended in 200 uL 2% FBS in PBS per well and the samples were run.

human CD73 on cells [2] = target: T2, human CD73 on cells; assay: cell-based or functional assay
human CD73 on cells [3] = target: T2, human CD73 on cells; assay: flow cytometry, Calu6 cells
Method: as §1, §2

[4] = target: T3, N-hCD73-his (N-terminal domain of human …); assay: SPR, mAb captured on protein A
human CD73 on cells [5] = target: T2, human CD73 on cells; assay: cell-based or functional assay; remark: listed apart in the source
human CD73 on cells [6] = target: T2, human CD73 on cells; assay: binding titration on Calu6 cells, average of 2-6 experiments

Binder	EC50 [1] [nM]	EC50 Calu6 inhibition (human CD73 on cells [2]) [nM]	EC50 (human CD73 on cells [3]) [nM]	Kd [4]	koff [4]	kon [4]	EC50 (nM), high-content internalization assay, Calu6, 2 h (human CD73 on cells [5]) [nM]	Ymax, high-content internalization assay (percent of 100 nM 11F11) (human CD73 on cells [5]) [%]	EC50 (human CD73 on cells [6]) [nM]
CD73.10-IgG2-C219S-IgG1.1f (antibody, also called CD73.10-IgG2CS-IgG1.1f; CD73.10-IgG2S-IgG1.1f) heavy: QVQLVESGGGVVQPGRSLRLSCAASGFTFSNYGMHWVRQAPGKGLEWVAVIWYDESNKYYPDSVKGRFTISRDNSKNTLYLQMNSLRAEDTAVYYCARGGSSWYPDSFDIWGQGTMVTVSSASTKGPSVFPLAPCSRSTSESTAALGCLVKDYFPEPVTVSWNSGALTSGVHTFPAVLQSSGLYSLSSVVTVPSSNFGTQTYTCNVDHKPSNTKVDKTVERKSCVECPPCPAPPVAGPSVFLFPPKPKDTLMISRTPEVTCVVVDVSHEDPEVKFNWYVDGVEVHNAKTKPREEQYNSTYRVVSVLTVLHQDWLNGKEYKCKVSNKALPSSIEKTISKAKGQPREPQVYTLPPSREEMTKNQVSLTCLVKGFYPSDIAVEWESNGQPENNYKTTPPVLDSDGSFFLYSKLTVDKSRWQQGNVFSCSVMHEALHNHYTQKSLSLSPG light: not shown	1.27	0.77	0.85	5.7 nM and 6.8 nM	0.0016 s⁻¹ and 0.0014 s⁻¹	230000 M⁻¹ s⁻¹ and 240000 M⁻¹ s⁻¹	0.87	99	0.85
CD73.10-IgG2-C219S (antibody, also called CD73.10-IgG2CS; CD73.10-IgG2S) heavy: QVQLVESGGGVVQPGRSLRLSCAASGFTFSNYGMHWVRQAPGKGLEWVAVIWYDESNKYYPDSVKGRFTISRDNSKNTLYLQMNSLRAEDTAVYYCARGGSSWYPDSFDIWGQGTMVTVSSASTKGPSVFPLAPCSRSTSESTAALGCLVKDYFPEPVTVSWNSGALTSGVHTFPAVLQSSGLYSLSSVVTVPSSNFGTQTYTCNVDHKPSNTKVDKTVERKSCVECPPCPAPPVAGPSVFLFPPKPKDTLMISRTPEVTCVVVDVSHEDPEVQFNWYVDGVEVHNAKTKPREEQFNSTFRVVSVLTVVHQDWLNGKEYKCKVSNKGLPAPIEKTISKTKGQPREPQVYTLPPSREEMTKNQVSLTCLVKGFYPSDIAVEWESNGQPENNYKTTPPMLDSDGSFFLYSKLTVDKSRWQQGNVFSCSVMHEALHNHYTQKSLSLSPG light: not shown	1.24	0.84	0.85	6.2 nM and 8.3 nM	0.0014 s⁻¹ and 0.0018 s⁻¹	220000 M⁻¹ s⁻¹	0.67	99	0.85
